Earlier results on one substance are cited in PMC11784315.

For the data set, the target named is Spike S1 S1 (Severe acute respiratory syndrome coronavirus 2) (UniProt P0DTC2).

DC-SIGN, sequence (Q9NNX6 whole entry): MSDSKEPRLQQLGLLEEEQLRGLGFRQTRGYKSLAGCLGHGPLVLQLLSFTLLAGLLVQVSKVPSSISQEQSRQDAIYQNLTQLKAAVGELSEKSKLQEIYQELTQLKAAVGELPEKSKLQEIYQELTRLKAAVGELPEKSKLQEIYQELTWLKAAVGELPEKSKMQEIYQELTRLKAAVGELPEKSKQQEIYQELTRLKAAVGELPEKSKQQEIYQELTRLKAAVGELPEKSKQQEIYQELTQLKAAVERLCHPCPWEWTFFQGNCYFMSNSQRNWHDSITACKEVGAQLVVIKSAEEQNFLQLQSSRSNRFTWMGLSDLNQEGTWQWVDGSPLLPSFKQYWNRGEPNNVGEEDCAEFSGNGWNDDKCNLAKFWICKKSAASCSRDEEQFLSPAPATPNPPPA

Regarding DC-SIGN (from UniProt Q9NNX6), the Kd is 420 nM.
